Where a chain is given by its changes, count along the chain named. One block for each binder: values may come before it.
Target: T1, human HER3 ECD (human, UniProt P21860 20-643)
T1 construct: also called hHER3-ECD; hu-HER3-ECD
Experiment: SPR (Biacore T100), antibody captured by anti-Fc gamma antibody, human HER3 ECD 0-1000 nM as analyte, 25°C, Langmuir 1:1 model

Kd: 2 nM
B1: Mab 205.10.1 (antibody, V domains shown)
VH: QVQLVQSGAEVKKPGASVKVSCKASGYTFRSSYISWVRQAPGQGLEWMGWIYAGTGSPSYNQKLQGRVTMTTDTSTSTAYMELRSLRSDDTAVYYCARHRDYYSNSLTYWGQGTLVTVSS
VL: DIVMTQSPDSLAVSLGERATINCKSSQSLLNSGNQKNYLTWYQQKPGQPPKLLIYWASTRESGVPDRFSGSGSGTDFTLTISSLQAEDVAVYYCQSDYSYPYTFGQGTKLEIK
notes: Humanized anti-HER3 antibody; Only variable domains are tied to it

Kd: 2 nM
B2: Mab 205.10.3 (antibody, V domains shown)
VH: B1 VH
VL: B1 VL with A90S, V91I
notes: as for B1

Reference: patent publication WO2017102789A1 (dated 2017)
